Data from US20220098635A1.

Legend:
Thiolated streptavidin [1] = molecular target: Thiolated streptavidin (UniProt P22629); assay: single-molecule conductance distribution (counts against Log G, fitted peaks); bis-biotinylated phi29 polymerase in a junction of palladium electrodes coated with thiolated streptavidin
Thiolated streptavidin [2] = molecular target: Thiolated streptavidin (UniProt P22629); assay: single-molecule conductance distribution (counts against Log G, fitted peaks); two-Avitag phi29 polymerase without flexible linker wired with biotin-streptavidin; the same distribution as 52 in Fig. 5B

Sequence of Thiolated streptavidin (P22629 37-163 limits assumed): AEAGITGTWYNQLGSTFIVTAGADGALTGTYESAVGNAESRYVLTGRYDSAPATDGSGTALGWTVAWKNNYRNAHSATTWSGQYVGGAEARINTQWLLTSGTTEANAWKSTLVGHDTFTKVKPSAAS

What does the source list for “bis-biotinylated ϕ29 polymerase (from UniProt P03680 1-111; P03680 112-279; P03680 280-575) (enzyme)”?
conductance peak (circled feature 53) (Thiolated streptavidin [1]): 3.98 nS; conductance peak (circled feature 1103) (Thiolated streptavidin [2]): 3.98 nS
